*1 amine or outer side, *2 acyl side, *3 side chain or, on linkers, in order; H or OH if unused. Where no end group is shown, it is not given here. Side-chain parts run from the residue outwards. [ ]: non-standard residue; d: D form. The star is where a group is joined. Decanoyl(10-(4-HOOC-PhO)) = O=C(O)c1ccc(OCCCCCCCCCC(=O)*)cc1; αMePhe(2-F) = C[C@](N)(Cc1ccccc1F)C(=O)O; γGlu = O=C(O)[C@H](CCC(=O)[*:2])N[*:1]; αMeY = C[C@](N)(Cc1ccc(O)cc1)C(=O)O; αMeL = CC(C)C[C@](C)(N)C(=O)O; Nle = CCCC[C@H](N)C(=O)O; Orn = NCCC[C@H](N)C(=O)O; AEEA = NCCOCCOCC(=O)O; Aib = CC(C)(N)C(=O)O
T1: human GIP receptor (human, UniProt P48546 22-466)
T1 sequence (looked up): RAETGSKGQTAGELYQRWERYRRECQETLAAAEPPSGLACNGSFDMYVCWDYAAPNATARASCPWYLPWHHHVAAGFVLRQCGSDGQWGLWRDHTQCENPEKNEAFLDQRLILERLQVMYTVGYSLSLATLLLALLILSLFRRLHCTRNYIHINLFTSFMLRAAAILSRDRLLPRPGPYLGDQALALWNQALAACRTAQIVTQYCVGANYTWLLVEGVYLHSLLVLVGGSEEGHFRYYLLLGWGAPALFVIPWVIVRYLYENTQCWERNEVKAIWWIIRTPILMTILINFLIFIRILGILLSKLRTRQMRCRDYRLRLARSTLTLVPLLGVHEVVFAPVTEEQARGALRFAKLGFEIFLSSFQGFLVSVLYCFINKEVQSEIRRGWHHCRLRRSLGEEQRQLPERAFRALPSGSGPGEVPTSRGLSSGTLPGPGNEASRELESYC

B1: Example 320 (peptide)
peptide: YXEGTXTSDXSIXLDXKAQXKFIXXLIEGGPSSGAPPPS
modifications: Y-Aib-EGT-αMeF(2F)-TSD-hTyr-SI-αMeL-LD-Orn-K((2-[2-(2-Amino-ethoxy)-ethoxy]-acetyl)2-(y-Glu)-(10-(4-carboxyphenoxy)decanoyl))AQ-Aib-K((2-[2-(2-Amino-ethoxy)-ethoxy]-acetyl)2-(γ-Glu)-(10-(4-carboxyphenoxy)decanoyl))FI-(D-Glu)-αMeY-LIEGGPSSGAPPPS-NH2
B2: Example 283 (peptide)
peptide: YXEGTXTSDXSIXLDXIAQXEFIKXLIKGGPSSGAPPPS
modifications: Y-Aib-EGT-αMeF(2F)-TSD-2Nal-SI-αMeL-LD-Orn-IAQ-Aib-EFIK((2-[2-(2-Amino-ethoxy)-ethoxy]-acetyl)2-(γ-Glu)-(10-(4-carboxyphenoxy)decanoyl))-αMeY-LIK((2-[2-(2-Amino-ethoxy)-ethoxy]-acetyl)2-(γ-Glu)-(10-(4-carboxyphenoxy)decanoyl))GGPSSGAPPPS-NH2
B3: Example 328 (peptide)
peptide: YXEGTXTSDXSIXLDXKAQXEFIXXLIKGGPSSGAPPPS
modifications: Y-Aib-EGT-αMeF(2F)-TSD-Nle-SI-αMeL-LD-Orn-K((2-[2-(2-Amino-ethoxy)-ethoxy]-acetyl)2-(γ-Glu)-(10-(4-carboxyphenoxy)decanoyl))AQ-Aib-EFI-(D-Glu)-αMeY-LIK((2-[2-(2-Amino-ethoxy)-ethoxy]-acetyl)2-(γ-Glu)-(10-(4-carboxyphenoxy)decanoyl))GGPSSGAPPPS-NH2
B4: Example 286 (peptide)
peptide: YXEGTXTSDXSIXLDXIAQXEFIKXLIKGGPSSGAPPPS
modifications: Y-Aib-EGT-αMeF(2F)-TSD-4Pal-SI-αMeL-LD-Orn-IAQ-Aib-EFIK(2-[2-(2-Amino-ethoxy)-ethoxy]-acetyl)2-(γ-Glu)-(11-(4-carboxyphenoxy)undecanoyl)-αMeY-LIK((2-[2-(2-Amino-ethoxy)-ethoxy]-acetyl)2-(γ-Glu)-(11-(4-carboxyphenoxy)undecanoyl)GGPSSGAPPPS-NH2)
B5: Example 273 (peptide)
peptide: YXEGTXTSDXSIXLDXKAQXEFIXXLIEGGPSSGAPPPSK
modifications: Y-Aib-EGT-αMeF(2F)-TSD-4Pal-SI-αMeL-LD-Orn-K((2-[2-(2-Amino-ethoxy)-ethoxy]-acetyl)2-(γ-Glu)-(10-(4-carboxyphenoxy)decanoyl))AQ-Aib-EFI-(D-Glu)-αMeY-LIEGGPSSGAPPPSK((2-[2-(2-Amino-ethoxy)-ethoxy]-acetyl)2-(γ-Glu)-(10-(4-carboxyphenoxy)decanoyl))-NH2
B6: Example 291 (peptide)
peptide: YXEGTXTSDXSIXLDXKAQXEFIXXLIEGGPSSGAPPPSK
modifications: Y-Aib-EGT-αMeF(2F)-TSD-OMeY-SI-αMeL-LD-Orn-K((2-[2-(2-Amino-ethoxy)-ethoxy]-acetyl)2-(γ-Glu)-CO-(CH2)10-CH3)AQ-Aib-EFI-(D-Glu)-αMeY-LIEGGPSSGAPPPSK((2-[2-(2-Amino-ethoxy)-ethoxy]-acetyl)2-(γ-Glu)-CO-(CH2)10-CH3)-NH2
B7: Example 285 (peptide)
peptide: YXEGTXTSDXSIXLDXKAQXEFIXXLIEGGPSSGAPPPSK
modifications: Y-Aib-EGT-αMeF(2F)-TSD-4Pal-SI-αMeL-LD-Orn-K((2-[2-(2-Amino-ethoxy)-ethoxy]-acetyl)2-(γ-Glu)-(11-(4-carboxyphenoxy)undecanoyl))AQ-Aib-EFI-(D-Glu)-αMeY-LIEGGPSSGAPPPSK((2-[2-(2-Amino-ethoxy)-ethoxy]-acetyl)2-(γ-Glu)-(11-(4-carboxyphenoxy)undecanoyl))-NH2
B8: Example 288 (peptide)
peptide: YXEGTXTSDXSIXLDXIAQXKFIXXLIEGGPSSGAPPPSK
modifications: Y-Aib-EGT-αMeF(2F)-TSD-4Pal-SI-αMeL-LD-Orn-IAQ-Aib-K(2-[2-(2-Amino-ethoxy)-ethoxy]-acetyl)2-(γ-Glu)-(11-(4-carboxyphenoxy)undecanoyl)FI-(D-Glu)-αMeY-LIEGGPSSGAPPPSK((2-[2-(2-Amino-ethoxy)-ethoxy]-acetyl)2-(γ-Glu)-(11-(4-carboxyphenoxy)undecanoyl)-NH2)

Assays:
Assay in all cases: cell-based or functional assay
human GIP receptor = molecular target: T1, human GIP receptor
human GLP-1 receptor = human GLP-1 receptor (human, UniProt P43220 24-463)
human glucagon receptor = human glucagon receptor (human, UniProt P47871 26-477)

| Binder | cAMP EC50 (1.0% HSA) (human GIP receptor) | cAMP Emax (1.0% HSA) (human GIP receptor) | cAMP EC50 (1.0% HSA) (human GLP-1 receptor) | cAMP EC50 (1.0% HSA) (human glucagon receptor) | cAMP Emax (1.0% HSA) (human GLP-1 receptor) |
| --- | --- | --- | --- | --- | --- |
| B1 | 0.338 nM | 84.1% | 6.22 nM | > 9950 nM |  |
| B2 | 4.88 nM |  | 49.5 nM | > 9950 nM |  |
| B3 | 0.75 nM |  | 23.3 nM | > 9950 nM |  |
| B4 | 2.18 nM |  | 35 nM | > 9950 nM | 90.3% |
| Y[Aib]EGT[αMePhe(2-F)]TSD[Nle]SI[αMeL]LD[Orn]IAQ[Aib]EFIK([AEEA-AEEA-γGlu-Decanoyl(10-(4-HOOC-PhO))])[αMeY]LIK([AEEA-AEEA-γGlu-Decanoyl(10-(4-HOOC-PhO))])GGPSSGAPPPS-NH2 [Example 314] | 3.51 nM |  | 38.6 nM | > 9950 nM |  |
| B5 | 0.318 nM |  | 40.9 nM | > 9950 nM |  |
| B6 | 0.833 nM |  | 7.43 nM | > 9950 nM |  |
| B7 | 1.28 nM |  | 136 nM | > 9950 nM |  |
| B8 | 0.48 nM | 85.2% | 17.1 nM | > 9950 nM | 123% |

Source: patent US20230265151A1, “GIP/GLP1 CO-AGONIST COMPOUNDS” (priority 2020, published 2023)
